We go through nine molecules from patent publication US20150344570A1 (published 2015).

Assay [1] concerns the target T1, FcγRIa extracellular domain with C-terminal His tag (human, UniProt P12314 16-292).
T1 construct: extracellular domain; expressed in FreeStyle293 cells; analyte in Biacore; also called FcgRI; 1a
Nature of the assay: SPR (Biacore), captured antibody, FcγR as analyte; relative binding. (In SPR one partner is held on a chip, and binding of the other changes the refractive index at the surface.)
T1 sequence (P12314 16-292): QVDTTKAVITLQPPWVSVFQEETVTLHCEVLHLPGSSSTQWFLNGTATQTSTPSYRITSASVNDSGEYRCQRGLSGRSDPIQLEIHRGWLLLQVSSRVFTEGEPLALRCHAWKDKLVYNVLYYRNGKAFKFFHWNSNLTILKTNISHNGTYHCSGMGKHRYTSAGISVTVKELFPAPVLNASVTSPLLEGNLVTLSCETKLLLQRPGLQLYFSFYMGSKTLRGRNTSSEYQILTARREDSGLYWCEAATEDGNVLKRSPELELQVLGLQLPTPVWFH

For assay [2], the target named is T2, FcγRIIb extracellular domain with C-terminal His tag (human, UniProt P31994 43-217).
T2 construct: extracellular domain; expressed in FreeStyle293 cells; analyte in Biacore; also called FcgRIIb; 2b
T2 sequence (looked up): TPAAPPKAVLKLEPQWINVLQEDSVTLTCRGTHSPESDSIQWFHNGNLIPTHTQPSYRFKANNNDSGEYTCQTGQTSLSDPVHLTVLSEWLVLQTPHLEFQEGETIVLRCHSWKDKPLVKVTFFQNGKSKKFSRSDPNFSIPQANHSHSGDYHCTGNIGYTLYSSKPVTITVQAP
The description is as above.

For assay [3], the target named is T3, FcγRIIb extracellular domain with C-terminal His tag (human, UniProt P31994 43-217).
T3 construct: extracellular domain; soluble analyte in Biacore; also called FcgRIIb; not shown: His tag at the C terminus
T3 sequence (looked up): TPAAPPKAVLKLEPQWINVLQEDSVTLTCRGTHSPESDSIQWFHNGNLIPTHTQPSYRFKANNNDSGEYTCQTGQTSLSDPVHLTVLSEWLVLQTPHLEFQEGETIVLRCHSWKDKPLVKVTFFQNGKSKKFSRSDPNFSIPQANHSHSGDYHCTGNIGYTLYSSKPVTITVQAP
Kind of assay: SPR, binding relative to GpH7-A5/GpH7-B3/GpL16-k0 = 100.

Assay [4] has as its target T4, FcγRIa extracellular domain with C-terminal His tag (human, UniProt P12314 16-292).
T4 construct: extracellular domain; soluble analyte in Biacore; also called FcgRI; not shown: His tag at the C terminus
The assay is described as above.
T4 sequence (P12314 16-292): as the sequence (P12314 16-292) above

B1: GpH7-A5/GpH7-B3 variant Y300_12R/GpL16-k0 (antibody, human IgG1, kappa)
heavy 1: not shown
heavy 2: not shown
light: DIVMTQSPLSLPVTPGEPASISCQASESLVHSNRNTYLHWYLQKPGQSPQLLIYKVSNRFSGVPDRFSGSGSGTDFTLKISRVEAEDVGVYYCSQNTHVPPTFGQGTKVEIERTVAAPSVFIFPPSDEQLKSGTASVVCLLNNFYPREAKVQWKVDNALQSGNSQESVTEQDSKDSTYSLSSTLTLSKADYEKHKVYACEVTHQGLSSPVTKSFNRGEC
notes: He Ab; IgG1, mutation in one H chain
Consider B1, for which the He/Con_1a in assay [1] was 105 % of HeCon Ab (GpH7-A5/GpH7-B3/GpL16-k0 = 100). Also, the He/Con_2b in assay [2] is 41.2 % of HeCon Ab (GpH7-A5/GpH7-B3/GpL16-k0 = 100).

B2: GpH7-A5/GpH7-B3 variant A327_13S/GpL16-k0 (antibody, human IgG1, kappa)
heavy 1: not shown
heavy 2: not shown
light: DIVMTQSPLSLPVTPGEPASISCQASESLVHSNRNTYLHWYLQKPGQSPQLLIYKVSNRFSGVPDRFSGSGSGTDFTLKISRVEAEDVGVYYCSQNTHVPPTFGQGTKVEIERTVAAPSVFIFPPSDEQLKSGTASVVCLLNNFYPREAKVQWKVDNALQSGNSQESVTEQDSKDSTYSLSSTLTLSKADYEKHKVYACEVTHQGLSSPVTKSFNRGEC
notes: change in the GpH7-B3 H chain only; also called He Ab
Regarding B2, the He/Con_2b in assay [3] was 79.5 % of control. In assay [4], the He/Con_1a is 102 % of control.

B3: GpH7-A5/GpH7-B3 variant Y300_13S/GpL16-k0 (antibody, human IgG1, kappa)
heavy 1: not shown
heavy 2: not shown
light: DIVMTQSPLSLPVTPGEPASISCQASESLVHSNRNTYLHWYLQKPGQSPQLLIYKVSNRFSGVPDRFSGSGSGTDFTLKISRVEAEDVGVYYCSQNTHVPPTFGQGTKVEIERTVAAPSVFIFPPSDEQLKSGTASVVCLLNNFYPREAKVQWKVDNALQSGNSQESVTEQDSKDSTYSLSSTLTLSKADYEKHKVYACEVTHQGLSSPVTKSFNRGEC
notes: as for B1
Take B3: the He/Con_1a in assay [1] was 111 % of HeCon Ab (GpH7-A5/GpH7-B3/GpL16-k0 = 100). For the same molecule, in assay [2], the He/Con_2b was 53.9 % of HeCon Ab (GpH7-A5/GpH7-B3/GpL16-k0 = 100).

B4: GpH7-A5/GpH7-B3 variant A330_06M/GpL16-k0 (antibody, human IgG1, kappa)
heavy 1: not shown
heavy 2: not shown
light: DIVMTQSPLSLPVTPGEPASISCQASESLVHSNRNTYLHWYLQKPGQSPQLLIYKVSNRFSGVPDRFSGSGSGTDFTLKISRVEAEDVGVYYCSQNTHVPPTFGQGTKVEIERTVAAPSVFIFPPSDEQLKSGTASVVCLLNNFYPREAKVQWKVDNALQSGNSQESVTEQDSKDSTYSLSSTLTLSKADYEKHKVYACEVTHQGLSSPVTKSFNRGEC
notes: as for B2
Turning to B4, the He/Con_2b in assay [3] was 80.5 % of control. Besides, in assay [4], the He/Con_1a is 105 % of control.

B5: GpH7-A5/GpH7-B3 variant Y300_16H/GpL16-k0 (antibody, human IgG1, kappa)
heavy 1: not shown
heavy 2: not shown
light: DIVMTQSPLSLPVTPGEPASISCQASESLVHSNRNTYLHWYLQKPGQSPQLLIYKVSNRFSGVPDRFSGSGSGTDFTLKISRVEAEDVGVYYCSQNTHVPPTFGQGTKVEIERTVAAPSVFIFPPSDEQLKSGTASVVCLLNNFYPREAKVQWKVDNALQSGNSQESVTEQDSKDSTYSLSSTLTLSKADYEKHKVYACEVTHQGLSSPVTKSFNRGEC
notes: as for B1
With B5, the He/Con_1a in assay [1] was 111 % of HeCon Ab (GpH7-A5/GpH7-B3/GpL16-k0 = 100). Besides, the He/Con_2b in assay [2] was 87 % of HeCon Ab (GpH7-A5/GpH7-B3/GpL16-k0 = 100).

B6: GpH7-A5/GpH7-B3 variant A327_03V/GpL16-k0 (antibody, human IgG1, kappa)
heavy 1: not shown
heavy 2: not shown
light: DIVMTQSPLSLPVTPGEPASISCQASESLVHSNRNTYLHWYLQKPGQSPQLLIYKVSNRFSGVPDRFSGSGSGTDFTLKISRVEAEDVGVYYCSQNTHVPPTFGQGTKVEIERTVAAPSVFIFPPSDEQLKSGTASVVCLLNNFYPREAKVQWKVDNALQSGNSQESVTEQDSKDSTYSLSSTLTLSKADYEKHKVYACEVTHQGLSSPVTKSFNRGEC
notes: as for B2
With B6, the He/Con_2b in assay [3] was 94.7 % of control. Further, the He/Con_1a in assay [4] is 103 % of control.

B7: GpH7-A5/GpH7-B3 variant A330_15Y/GpL16-k0 (antibody, human IgG1, kappa)
heavy 1: not shown
heavy 2: not shown
light: DIVMTQSPLSLPVTPGEPASISCQASESLVHSNRNTYLHWYLQKPGQSPQLLIYKVSNRFSGVPDRFSGSGSGTDFTLKISRVEAEDVGVYYCSQNTHVPPTFGQGTKVEIERTVAAPSVFIFPPSDEQLKSGTASVVCLLNNFYPREAKVQWKVDNALQSGNSQESVTEQDSKDSTYSLSSTLTLSKADYEKHKVYACEVTHQGLSSPVTKSFNRGEC
notes: as for B2
As for B7, the He/Con_2b in assay [3] was 95 % of control. In addition, the He/Con_1a in assay [4] was 105 % of control.

B8: GpH7-A5/GpH7-B3 variant A330_10E/GpL16-k0 (antibody, human IgG1, kappa)
heavy 1: not shown
heavy 2: not shown
light: DIVMTQSPLSLPVTPGEPASISCQASESLVHSNRNTYLHWYLQKPGQSPQLLIYKVSNRFSGVPDRFSGSGSGTDFTLKISRVEAEDVGVYYCSQNTHVPPTFGQGTKVEIERTVAAPSVFIFPPSDEQLKSGTASVVCLLNNFYPREAKVQWKVDNALQSGNSQESVTEQDSKDSTYSLSSTLTLSKADYEKHKVYACEVTHQGLSSPVTKSFNRGEC
notes: as for B2
On to B8, for which the He/Con_2b in assay [3] is 70.1 % of control. Besides, the He/Con_1a in assay [4] is 107 % of control.

B9: GpH7-A5/GpH7-B3 variant A330_04F/GpL16-k0 (antibody, human IgG1, kappa)
heavy 1: not shown
heavy 2: not shown
light: DIVMTQSPLSLPVTPGEPASISCQASESLVHSNRNTYLHWYLQKPGQSPQLLIYKVSNRFSGVPDRFSGSGSGTDFTLKISRVEAEDVGVYYCSQNTHVPPTFGQGTKVEIERTVAAPSVFIFPPSDEQLKSGTASVVCLLNNFYPREAKVQWKVDNALQSGNSQESVTEQDSKDSTYSLSSTLTLSKADYEKHKVYACEVTHQGLSSPVTKSFNRGEC
notes: as for B2
On to B9, for which, in assay [3], the He/Con_2b was 92.8 % of control. The He/Con_1a in assay [4] is 106 % of control.
